The results in this text go back to patent publication US20220025022A1.

In experiment [1] the target is MBP-CfaE-N (recombinant N-terminal adhesin domain of CfaE fused to an MBP tag) (enterotoxigenic Escherichia coli (ETEC)) (UniProt P25734). Briefly: SPR (Biacore T200), CfaE on CM5 chip, VHH injected, 25 C, 1:1 model. On the technique in general: SPR reads the build-up and loss of mass on a sensor chip optically.
For experiment [2], the target named is CS14 on ETEC strain #400599 (enterotoxigenic Escherichia coli (ETEC)). The experiment is described as follows: cell-based or functional assay.
The target in experiment [3] is T1, CFA/I fimbrial protein (with adhesin subunit CfaE) on ETEC strain H10407 (enterotoxigenic Escherichia coli (ETEC)) (UniProt P25734).
T1 sequence (looked up): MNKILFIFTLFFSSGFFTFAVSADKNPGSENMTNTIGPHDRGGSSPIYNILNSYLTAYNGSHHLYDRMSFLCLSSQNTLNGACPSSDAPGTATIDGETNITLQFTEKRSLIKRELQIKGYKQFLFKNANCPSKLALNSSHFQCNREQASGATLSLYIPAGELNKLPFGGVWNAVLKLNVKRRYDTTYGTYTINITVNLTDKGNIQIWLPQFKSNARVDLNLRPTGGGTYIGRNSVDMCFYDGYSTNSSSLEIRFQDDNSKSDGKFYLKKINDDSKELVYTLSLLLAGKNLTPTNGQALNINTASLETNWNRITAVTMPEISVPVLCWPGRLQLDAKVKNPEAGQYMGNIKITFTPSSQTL
Briefly: cell-based or functional assay.

Experiment [4] concerns the target CS2 on ETEC strain #201546 (enterotoxigenic Escherichia coli (ETEC)). The experiment is described as follows: cell-based or functional assay.
Experiment [5] has as its target CS19 on ETEC strain #204648 (enterotoxigenic Escherichia coli (ETEC)). The experiment is described as follows: cell-based or functional assay.
Experiment [6] concerns the target CS3 on ETEC strain #100483 (enterotoxigenic Escherichia coli (ETEC)). Briefly: cell-based or functional assay.
In experiment [7] the target is CS4 on ETEC strain (enterotoxigenic Escherichia coli (ETEC)). The experiment is described as follows: cell-based or functional assay.
Experiment [8] addresses CS6 on ETEC strain #100001 (enterotoxigenic Escherichia coli (ETEC)). The experiment is described as follows: cell-based or functional assay.
The target of experiment [9] is CS21 on ETEC strain #100171 (enterotoxigenic Escherichia coli (ETEC)). Briefly: cell-based or functional assay.
Experiment [10] has as its target CS17 on ETEC strain (enterotoxigenic Escherichia coli (ETEC)). The experiment is described as follows: cell-based or functional assay.
In experiment [11] the target is CS5 on ETEC strain #204348 (enterotoxigenic Escherichia coli (ETEC)). The experiment is described as follows: cell-based or functional assay.
Experiment [12] addresses CS1 on ETEC strain #200145 (enterotoxigenic Escherichia coli (ETEC)). The experiment is described as follows: cell-based or functional assay.

B1: VHH antibody 1H4 (monomeric) (VHH)
VHH: EVQLVESGGGLVQAGGSLRLSCAASSRTFNHYNIGWFRQAPGKEREFAAAITWNGRSTLYADSVKGRFTISRDNAKNTVYLQMNSLKPEDTAVYYCATLTTWEHKWEYNSQGQGTQVTVSS
Broadly, the Kd is the equilibrium constant for the complex coming apart. A word on the koff: it is the first-order rate constant of dissociation. The term kon denotes the rate constant with which the complex forms. In the case of B1, in [1], the Kd came to 18.3 nM. For the same molecule, the off-rate (koff) in experiment [1] is 0.000513 s⁻¹. Moreover, the kon in experiment [1] is 28100 M⁻¹ s⁻¹. The MRHA IC100 in [2] was determined as 100 µg/mL; in experiment [3] it was 200 µg/mL; in experiment [4], 100 µg/mL; in experiment [5], 100 µg/mL; in [6] it was 100 µg/mL; in [7] it was 25 µg/mL. Besides, the MRHA IC100 in [8] was determined as 25 µg/mL; in experiment [9], 25 µg/mL; in experiment [10], 6.25 µg/mL; in [11], 3.12 µg/mL; in experiment [12], 100 µg/mL.

B2: dimeric 2R215 (VHH)
chain: QVQLQESGGGLVQAGGSLRLSCAASGNIFQDAEMGWYRQAPGKEREFVATIAYGGNTNYADSVKGRFTISRDNAKNTVYLQMNSLKPEDTAVYYCAVYTGVYYDRTTGGYVAFEYWGQGTQVTVSSGGGGSGGGGSGGGGSGGGGSGGGGSGGGGSQVQLQESGGGLVQAGGSLRLSCAASGNIFQDAEMGWYRQAPGKEREFVATIAYGGNTNYADSVKGRFTISRDNAKNTVYLQMNSLKPEDTAVYYCAVYTGVYYDRTTGGYVAFEYWGQGTQVTVSSHHHHHH
In experiment [3], B2 came in with a Caco2 adhesion assay: concentration at which adhesion was inhibited of 1.8 µM and an MRHA IC100 of 1.25 µM.

B3: trimeric 2R215 (VHH)
chain: QVQLQESGGGLVQAGGSLRLSCAASGNIFQDAEMGWYRQAPGKEREFVATIAYGGNTNYADSVKGRFTISRDNAKNTVYLQMNSLKPEDTAVYYCAVYTGVYYDRTTGGYVAFEYWGQGTQVTVSSGGGGSGGGGSGGGGSQVQLQESGGGLVQAGGSLRLSCAASGNIFQDAEMGWYRQAPGKEREFVATIAYGGNTNYADSVKGRFTISRDNAKNTVYLQMNSLKPEDTAVYYCAVYTGVYYDRTTGGYVAFEYWGQGTQVTVSSGGGGSGGGGSGGGGSQVQLQESGGGLVQAGGSLRLSCAASGNIFQDAEMGWYRQAPGKEREFVATIAYGGNTNYADSVKGRFTISRDNAKNTVYLQMNSLKPEDTAVYYCAVYTGVYYDRTTGGYVAFEYWGQGTQVTVSSHHHHHH
Consider B3, for which, in [3], the Caco2 adhesion assay: concentration at which adhesion was inhibited was found to be 0.567 µM and the MRHA IC100 was determined as 2.5 µM.
